Reference: patent publication US20010006793A1, “MODULATORS OF EUKARYOTIC CASPASES” (priority 1998, published 2001)

Molecular target: T1, human caspase-8β (Homo sapiens, UniProt Q14790)
T1 construct: expressed in transfected cells; host or cells: Saccharomyces cerevisiae FY250, single-copy ARS/CEN vector YCpGAL1-caspase-8β-L, GAL1 promoter
Test: Yeast screening method: suppression of caspase-8β-induced lethality in S. cerevisiae FY250 double transformants on galactose medium
Format: cell-based
Conditions: for identified as a caspase inhibitor (product of human brain cDNA suppressing caspase-8β-induced cell death): FY250 double transformants, GAL1-driven expression, galactose-containing medium; for Caspase Inhibitor: Table 1 Caspase Modulators, identified using the screening method of the invention
From the text: The invention includes a screening method of determining whether a compound is a caspase modulator. […] A difference between the viability indicator of the first cell and the viability indicator of the second cell is an indication that the compound is a caspase modulator.
As described herein, the transformant expresses the caspase when an inducer of the inducible promoter of the caspase vector is provided to the caspase transformant. When the caspase transformant expresses the caspase, cytotoxicity ensues in the caspase transformant. If an inhibitor of the caspase is provided to the caspase transformant prior to the onset of cytotoxicity, the caspase transformant may be enabled to survive expression of the caspase or the onset of cytotoxicity may be delayed.
The gene encoding p35 was cloned into a yeast-based expression vector designated YCpGAL1-U (wherein U designates a URA3 selectable marker) to yield a YCpGAL1-p35-U inhibitor vector. Yeast cells were co-transformed with the inhibitor vector, YCpGAL1-p35-U, and with the caspase vector, YCpGAL1-caspase-8β-L, to yield a double transformant. Double transformants were plated on SC-leucine-uracil medium supplemented with dextrose to repress GAL1 promoter function. Serial ten-fold dilutions of individual double transformants grown in SC-leucine-uracil medium containing dextrose were prepared and spotted onto SC-leucine-uracil medium comprising dextrose or galactose.
Individual viable colonies of double transformant are isolated, and the test vector comprising the unknown cDNA is isolated.
The screening method used in this Example was performed as follows. A yeast double transformant was prepared by transforming S. cerevisiae strain FY250 with two yeast expression vectors. The first yeast expression vector comprised cDNA encoding a self-activating form of human caspase-8β operably linked to a GAL1 promoter and a LEU2 selectable marker. This first vector was a single copy vector and was designated YCpGAL1-caspase-8β-L. A plurality of second yeast expression vectors was used, each comprising a single random human cDNA sequence operably linked to a GAL1 promoter and a URA3 selectable marker. The cDNA sequences used to generate the plurality of second yeast expression vectors were obtained from a library of cDNAs prepared from human brain cells. The second vectors were multicopy vectors.
Double transformants were propagated on plates containing SC-leucine-uracil agar comprising dextrose. Colonies of double transformants were replica plated on plates containing medium comprising galactose, whereby expression of caspase-8β and of any product encoded by the cDNA of the second vector was induced. […] The second vector was recovered from individual colonies of double transformants which were able to survive on the galactose-containing medium and used, along with the first vector, to transform fresh FY250 cells. […] The identity of individual products encoded by the cDNA of individual second vectors was established by determining the nucleotide sequence of the cDNA and comparing the sequence with databases of known human gene sequences, including Genbank, the EST Database, and the Human Genome Database.

T1 sequence (Q14790 1-464 isoform Q14790-2): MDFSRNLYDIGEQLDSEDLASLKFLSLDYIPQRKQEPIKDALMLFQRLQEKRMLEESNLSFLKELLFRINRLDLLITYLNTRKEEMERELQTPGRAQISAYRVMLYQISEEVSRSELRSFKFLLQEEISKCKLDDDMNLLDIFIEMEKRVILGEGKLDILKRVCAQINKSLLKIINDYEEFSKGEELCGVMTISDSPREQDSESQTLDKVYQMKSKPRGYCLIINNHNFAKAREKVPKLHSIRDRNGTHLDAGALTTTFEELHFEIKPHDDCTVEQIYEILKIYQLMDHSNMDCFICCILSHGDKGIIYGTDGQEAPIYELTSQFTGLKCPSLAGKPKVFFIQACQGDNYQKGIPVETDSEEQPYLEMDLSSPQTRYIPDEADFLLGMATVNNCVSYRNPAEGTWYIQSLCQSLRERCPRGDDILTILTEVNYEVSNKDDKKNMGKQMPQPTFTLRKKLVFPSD

Which results are given for “Human Cytochrome b: product encoded by human brain cDNA, identified as caspase inhibitor”?
identified as a caspase inhibitor (product of human brain cDNA suppressing caspase-8β-induced cell death): caspase inhibitor; Caspase Inhibitor: ✓

How did the “identified as a caspase inhibitor (product of human brain cDNA suppressing caspase-8β-induced cell death)” value turn out when “Human Synaptophysin p38: product encoded by human brain cDNA, identified as caspase inhibitor” was run?
The value was “caspase inhibitor”.

What about the “Caspase Inhibitor” value of the same substance?
Its value is “✓”.

With “Human Tat Binding Protein: product encoded by human brain cDNA; also known as TBP, SUG1, and 26S proteosomal p45 subunit ATPase” as the substance, how does the “identified as a caspase inhibitor (product of human brain cDNA suppressing caspase-8β-induced cell death)” value read?
Its value is “caspase inhibitor”.

And the “Caspase Inhibitor” value?
The value was “✓”.

With IETD/fmk [reference compound] as the substance, how does the “Caspase Inhibitor” value read?
Its value is “✓”.

Which “Caspase Inhibitor” value does the source give for z-VAD-fmk [reference compound] here?
Its value is “✓”.
